# Assay results taken from patent publication US20240108745A1 (MEDILINK THERAPEUTICS SUZHOU, published 2024).
# T1: monkey Her3-his (monkey)
# T1 chain: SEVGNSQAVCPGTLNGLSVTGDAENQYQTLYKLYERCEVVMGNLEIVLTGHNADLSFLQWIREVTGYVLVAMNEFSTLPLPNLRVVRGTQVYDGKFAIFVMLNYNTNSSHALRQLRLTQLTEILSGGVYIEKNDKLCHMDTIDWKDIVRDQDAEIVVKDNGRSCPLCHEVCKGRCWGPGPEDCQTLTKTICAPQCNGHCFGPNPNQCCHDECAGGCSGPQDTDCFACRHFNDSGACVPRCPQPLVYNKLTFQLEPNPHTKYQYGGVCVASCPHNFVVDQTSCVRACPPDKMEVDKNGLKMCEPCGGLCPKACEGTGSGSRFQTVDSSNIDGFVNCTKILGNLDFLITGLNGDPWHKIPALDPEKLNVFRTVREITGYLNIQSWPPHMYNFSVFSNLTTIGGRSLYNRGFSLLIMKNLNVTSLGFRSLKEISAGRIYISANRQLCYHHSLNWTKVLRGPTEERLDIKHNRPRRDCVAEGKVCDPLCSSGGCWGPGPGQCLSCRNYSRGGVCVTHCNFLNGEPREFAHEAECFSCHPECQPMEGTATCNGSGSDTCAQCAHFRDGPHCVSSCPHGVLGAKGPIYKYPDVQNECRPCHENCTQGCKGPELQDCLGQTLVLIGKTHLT
# B1: anti-Her3 antibody 202-2-1 (antibody, human IgG1, kappa, V domains shown)
# VH: EVQLVESGGGVVQPGRSLRLSCAASGFTFSTYGMHWVRQAPGKGLEWVAVIWYDVSHKYYADSVKGRFTISRDNSKNTLSLQMNSLRAEDTAVYYCARDWGDPDAFDIWGQGTMVTVSS
# VL: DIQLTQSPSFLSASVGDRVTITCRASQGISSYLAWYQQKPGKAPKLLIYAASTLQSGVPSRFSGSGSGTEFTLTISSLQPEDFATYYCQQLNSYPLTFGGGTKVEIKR
# notes: expressed in HEK293F; also called Her3mAb
# What was measured:
# [1] = biological target: T2, rat Her3-his (rat, UniProt Q62799 20-643); assay: ELISA, rat Her3-his coated at 1 µg/mL, anti-human Fc-HRP
# T2 construct: also called rat Her3 protein
# Experimental: (§1) The affinity of anti-Her3 antibody to Her3 protein was detected by ELISA experimental method. Specific experimental procedures: human Her3-his, monkey Her3-his protein and rat Her3-his was diluted with carbonate buffer with a pH value of 9.6 to a final concentration of 1 μg/mL, and then added to 96-well enzyme labelling wells at 100 μL/well, and coated overnight at 4° C.; the coating solution was discarded, and the plate was washed once with PBST, then 100 μL of PBS (containing 2% BSA) was added to each well, and blocked at 37° C. for 1 h; then, 100 μL of anti-Her3 antibody diluted with PBS (containing 2% BSA) ((starting at 1 μg, 3 folds serial dilution, in duplicate wells) was added to each well, and then incubated at 37° C. for 2 h; the plate was washed three times with PBST, and horseradish peroxidase-labeled anti-human Fc antibody (diluted at 1:10000 with PBS) was added at 100 μL/well, then reacted for 1 h at 37° C. The plate was washed 5 times with PBST. TMB chromogenic solution was added at 100 μL/well and incubated at 37° C. for 7 min to develop color, and then the stop solution was added at 50 μL/well to terminate the reaction.
# [2] = biological target: T1, monkey Her3-his; assay: ELISA, antigen coated at 1 µg/mL, antibody titrated, anti-human Fc-HRP
# Experimental: as §1
# [3] = biological target: T3, human Her3-his (human, UniProt P21860 20-643); assay: as above
# T3 construct: range 1-643; also called human Her3 protein
# Experimental: as §1
# T2 sequence (Q62799 other isoform, or with tags, fused parts or gaps): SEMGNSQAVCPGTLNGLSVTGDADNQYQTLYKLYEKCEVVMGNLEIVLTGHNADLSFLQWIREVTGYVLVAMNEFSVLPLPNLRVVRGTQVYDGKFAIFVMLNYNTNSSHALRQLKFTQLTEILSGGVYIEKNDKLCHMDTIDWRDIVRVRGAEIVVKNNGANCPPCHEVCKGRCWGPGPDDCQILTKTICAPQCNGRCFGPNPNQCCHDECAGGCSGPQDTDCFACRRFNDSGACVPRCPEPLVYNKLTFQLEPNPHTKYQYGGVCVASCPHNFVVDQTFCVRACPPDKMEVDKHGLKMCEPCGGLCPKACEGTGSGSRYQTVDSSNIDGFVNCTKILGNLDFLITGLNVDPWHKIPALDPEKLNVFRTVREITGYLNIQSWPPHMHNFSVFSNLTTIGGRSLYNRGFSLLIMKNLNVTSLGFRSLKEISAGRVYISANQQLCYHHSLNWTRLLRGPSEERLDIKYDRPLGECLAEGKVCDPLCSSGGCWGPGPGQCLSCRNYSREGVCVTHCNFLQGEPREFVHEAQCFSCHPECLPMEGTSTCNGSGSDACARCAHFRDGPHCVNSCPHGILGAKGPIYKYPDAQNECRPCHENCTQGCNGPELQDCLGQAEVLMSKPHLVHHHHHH
binder,measurement,setting,value
B1,binding result,[1],no binding
same,EC50,[2],0.0159 nM
same,EC50,[3],0.021 nM
